Patent US20240197902A1 (ACCELERON PHARMA, published 2024)
Substitutions are numbered along the chain they refer to. Numbers in names are those of the source.

Key:
[1] = biological target: T1, activin C (UniProt P55103 237-352); assay: SPR (Biacore), Fc fusion captured by anti-Fc antibody
T1 sequence (looked up): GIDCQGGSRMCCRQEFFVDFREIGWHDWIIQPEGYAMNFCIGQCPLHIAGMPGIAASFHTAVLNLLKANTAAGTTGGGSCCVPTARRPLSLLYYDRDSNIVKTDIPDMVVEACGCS

[2] = biological target: T2, BMP5 (UniProt P22003 317-454, limits assumed); assay: as above
T2 sequence (looked up): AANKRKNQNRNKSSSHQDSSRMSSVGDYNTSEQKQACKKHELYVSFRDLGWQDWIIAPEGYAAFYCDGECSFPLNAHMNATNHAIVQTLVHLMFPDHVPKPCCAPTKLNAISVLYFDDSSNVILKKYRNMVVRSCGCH

[3] = biological target: T3, BMP10 (UniProt O95393 317-424); assay: as above
T3 sequence (looked up): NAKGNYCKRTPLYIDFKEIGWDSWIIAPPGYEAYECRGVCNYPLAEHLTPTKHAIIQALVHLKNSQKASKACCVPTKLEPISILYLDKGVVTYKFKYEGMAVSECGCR

[4] = biological target: T4, GDF3 (UniProt Q9NR23 251-364); assay: as above
T4 sequence (looked up): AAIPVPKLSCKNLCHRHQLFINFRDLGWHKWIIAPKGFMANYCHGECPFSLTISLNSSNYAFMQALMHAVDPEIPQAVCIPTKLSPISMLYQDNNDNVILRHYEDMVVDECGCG

[5] = biological target: T5, activin AC (UniProt P08476 311-426; P55103 237-352); assay: as above
T5 construct: Heterodimer of beta A and beta C subunits
T5 sequence (looked up) 1: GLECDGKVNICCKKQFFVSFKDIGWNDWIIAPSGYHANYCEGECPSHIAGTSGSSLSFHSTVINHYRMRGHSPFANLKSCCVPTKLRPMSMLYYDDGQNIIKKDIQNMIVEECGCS
T5 sequence (looked up) 2: T1 sequence (looked up)

[6] = biological target: T6, GDF8 (UniProt O14793 267-375); assay: as above
T6 construct: also called myostatin
T6 sequence (looked up): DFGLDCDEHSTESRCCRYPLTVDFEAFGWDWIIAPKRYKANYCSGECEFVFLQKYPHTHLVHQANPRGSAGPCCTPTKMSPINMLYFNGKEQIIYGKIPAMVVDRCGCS

[7] = biological target: T7, GDF11 (UniProt O95390 299-407); assay: as above
T7 construct: also called BMP11
T7 sequence (looked up): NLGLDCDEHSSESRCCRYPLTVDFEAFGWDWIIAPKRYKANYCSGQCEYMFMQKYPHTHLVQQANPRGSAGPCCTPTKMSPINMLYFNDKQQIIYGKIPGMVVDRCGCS

[8] = biological target: T8, activin B (UniProt P09529 293-407); assay: as above
T8 sequence (looked up): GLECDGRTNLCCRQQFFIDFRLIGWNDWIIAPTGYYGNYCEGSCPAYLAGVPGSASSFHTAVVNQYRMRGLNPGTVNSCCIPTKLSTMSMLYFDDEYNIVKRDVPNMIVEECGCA

[9] = biological target: T9, BMP9 (UniProt Q9UK05 320-429); assay: as above
T9 construct: also called GDF2
T9 sequence (looked up): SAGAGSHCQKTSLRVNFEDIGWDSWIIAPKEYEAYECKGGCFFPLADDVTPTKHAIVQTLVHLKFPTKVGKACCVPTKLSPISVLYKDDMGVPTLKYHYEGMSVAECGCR

[10] = biological target: T10, activin A (UniProt P08476 311-426); assay: as above
T10 sequence (looked up): T5 sequence (looked up) 1

[11] = biological target: T11, BMP6 (UniProt P22004 375-513, limits assumed); assay: as above
T11 sequence (looked up): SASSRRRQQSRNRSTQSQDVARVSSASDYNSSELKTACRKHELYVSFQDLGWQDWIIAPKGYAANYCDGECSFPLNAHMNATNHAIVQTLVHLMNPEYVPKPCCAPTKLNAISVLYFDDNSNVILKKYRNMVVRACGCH

[12] = biological target: T3, BMP10; assay: SPR (Biacore), Fc fusion captured by anti-Fc antibody, 37 C
[13] = biological target: T4, GDF3; assay: as above
[14] = biological target: T6, GDF8; assay: as above
[15] = biological target: T7, GDF11; assay: as above
[16] = biological target: T8, activin B; assay: as above
[17] = biological target: T9, BMP9; assay: as above
[18] = biological target: T10, activin A; assay: as above
[19] = biological target: T11, BMP6; assay: as above
[20] = biological target: T3, BMP10; assay: as above; remark: listed apart in the source
[21] = biological target: T10, activin A; assay: as above; remark: listed apart in the source
[22] = biological target: T7, GDF11; assay: not described

B1: ActRIIB-Fc:ALK7-Fc heterodimer (Fc fusion)
chain 1: GRGEAETRECIYYNANWELERTNQSGLERCEGEQDKRLHCYASWRNSSGTIELVKKGCWLDDFNCYDRQECVATEENPQVYFCCCEGNFCNERFTHLPEAGGPEVTYEPPPTAPT
chain 2: ELSPGLKCVCLLCDSSNFTCQTEGACWASVMLTNGKEQVIKSCVSLPELNAQVFCHSSNNVTKTECCFTDFCNNITLHLPTASPNAPKLGPME
Kd [1]: 6.9 nM | koff [1]: 0.0024 s⁻¹ | kon [1]: 350000 M⁻¹ s⁻¹ | Kd [2]: 57 nM | koff [2]: 0.0085 s⁻¹ | kon [2]: 150000 M⁻¹ s⁻¹ | Kd [3]: 0.19 nM | koff [3]: 0.0028 s⁻¹ | kon [3]: 1.5e+07 M⁻¹ s⁻¹ | Kd [4]: 4.5 nM | koff [4]: 0.01 s⁻¹ | kon [4]: 2.3e+06 M⁻¹ s⁻¹ | Kd [5]: 0.22 nM | koff [5]: 0.00057 s⁻¹ | kon [5]: 2.6e+06 M⁻¹ s⁻¹ | Kd [6]: 0.27 nM | koff [6]: 0.001 s⁻¹ | kon [6]: 3.7e+06 M⁻¹ s⁻¹ | Kd [7]: 0.008 nM | koff [7]: 0.00075 s⁻¹ | kon [7]: 9.5e+07 M⁻¹ s⁻¹ | Kd [8]: 0.017 nM | koff [8]: 0.0002 s⁻¹ | kon [8]: 1.2e+07 M⁻¹ s⁻¹ | Kd [9]: > 1.4 nM | Kd [10]: 0.043 nM | koff [10]: 0.0019 s⁻¹ | kon [10]: 4.4e+07 M⁻¹ s⁻¹ | Kd [11]: 5.3 nM | koff [11]: 0.0063 s⁻¹ | kon [11]: 1.2e+06 M⁻¹ s⁻¹

B2: ActRIIB-Fc:ActRIIB(L79E)-Fc heterodimer (Fc fusion)
chain 1: B1 chain 1
chain 2: B1 chain 1 with L60E
Kd [12]: 0.042 nM | koff [12]: 0.002 s⁻¹ | kon [12]: 4.8e+07 M⁻¹ s⁻¹ | Kd [13]: 10 nM | koff [13]: 0.0059 s⁻¹ | kon [13]: 580000 M⁻¹ s⁻¹ | Kd [14]: 0.15 nM | koff [14]: 0.0005 s⁻¹ | kon [14]: 3.4e+06 M⁻¹ s⁻¹ | Kd [15]: 0.009 nM | koff [15]: 0.00036 s⁻¹ | kon [15]: 4e+07 M⁻¹ s⁻¹ | Kd [16]: 0.025 nM | koff [16]: 0.00021 s⁻¹ | kon [16]: 8.3e+06 M⁻¹ s⁻¹ | Kd [17]: > 2.8 nM | Kd [18]: 0.17 nM | koff [18]: 0.0015 s⁻¹ | kon [18]: 8.8e+06 M⁻¹ s⁻¹ | Kd [19]: 0.056 nM | koff [19]: 0.018 s⁻¹ | kon [19]: 3.3e+08 M⁻¹ s⁻¹ | fold faster off-rate than ActRIIB-Fc homodimer [20]: ~10 fold | fold faster off-rate than ActRIIB-Fc homodimer [21]: ~10 fold

B3: ActRIIB-Fc with C-terminal tail (A64 background) (Fc fusion)
chain: SGRGEAETRECIYYNANWELERTNQSGLERCEGEQDKRLHCYASWANSSGTIELVKKGCWLDDFNCYDRQECVATEENPQVYFCCCEGNFCNERFTHLPEAGGPEVTYEPPPTAPTGGGTHTCPPCPAPELLGGPSVFLFPPKPKDTLMISRTPEVTCVVVDVSHEDPEVKFNWYVDGVEVHNAKTKPREEQYNSTYRVVSVLTVLHQDWLNGKEYKCKVSNKALPVPIEKTISKAKGQPREPQVYTLPPSREEMTKNQVSLTCLVKGFYPSDIAVEWESNGQPENNYKTTPPVLDSDGSFFLYSKLTVDKSRWQQGNVFSCSVMHEALHNHYTQKSLSLSPGK
notes: Alanine at position 64; also called preferred version of ActRIIB-Fc
binding result [22]: binds
